Test results reported in PMC6981147.

Columns and labels:
[1] = biological target: Rpn13 proteasome (reconstituted proteasome harboring the rpn1-ARR and rpn10-UIM mutations) (S. cerevisiae) (UniProt P38764)
[2] = biological target: Rpn1 proteasome (reconstituted proteasome harboring the rpn10-UIM and rpn13-pru mutations) (S. cerevisiae) (UniProt P38764)
[3] = biological target: Rpn10/13 proteasome (rpn1-ARR) (S. cerevisiae) (UniProt P38764)
[4] = biological target: Rpn13 proteasome (rpn1-ARR, rpn10-uim) (S. cerevisiae) (UniProt P38764)
[5] = biological target: TM (triple mutant) proteasome (rpn1-ARR, rpn10-uim, rpn13-pru) (S. cerevisiae) (UniProt P38764)
[6] = biological target: Rpn10 proteasome (rpn1-ARR, rpn13-pru) (S. cerevisiae) (UniProt P38764)
[7] = biological target: wild-type proteasome (reconstituted from regulatory particle and core particle) (S. cerevisiae) (UniProt P38764)

Substance | Supplementary Table 4: KM of degradation (Michaelis-Menten analysis of initial rates of loss of GFP fluorescence, 25 nM proteasome, 1 mM ATP, 30 °C) [4] [nM] | Supplementary Table 4: KM of degradation (Michaelis-Menten analysis of initial rates of loss of GFP fluorescence, 25 nM proteasome, 1 mM ATP, 30 °C) [5] [nM] | Supplementary Table 4: KM of degradation (Michaelis-Menten analysis of initial rates of loss of GFP fluorescence, 25 nM proteasome, 1 mM ATP, 30 °C) [7] [nM] | other results
UBL-GFP-35 (from UniProt P32628 1-80; P00175 1-35) | – | – | – | initial rate of degradation (GFP fluorescence), single turnover, 5 nM substrate, 25 nM proteasome, 1 mM ATP, 30 °C; against Ub5(K48)-GFP-35 or Ub9(K48)-GFP-35 on the same proteasome [1]: > 4 fold
UBL-GFP-95 (from UniProt P32628 1-80) | – | – | – | initial rate of degradation (GFP fluorescence), single turnover, 5 nM substrate, 25 nM proteasome, 1 mM ATP, 30 °C; against Ub5(K48)-GFP-95 on the same proteasome [2]: 4 fold
Ub5(K48)-GFP-35: base protein Ub-GFP-35 with a K48-linked chain of four ubiquitins attached to its ubiquitin domain (from UniProt P0CG63 1-76; P0CG63 1-76) | 5720 | 5280 | – | Supplementary Table 4: KM of degradation (Michaelis-Menten analysis of initial rates of loss of GFP fluorescence, 25 nM proteasome, 1 mM ATP, 30 °C) [3]: 58 nM
Ub5(K63)-GFP-35: base protein Ub-GFP-35 with a K63-linked chain of four ubiquitins attached to its ubiquitin domain (from UniProt P0CG63 1-76; P0CG63 1-76) | 816 | 2060 | 333 | Supplementary Table 4: KM of degradation (Michaelis-Menten analysis of initial rates of loss of GFP fluorescence, 25 nM proteasome, 1 mM ATP, 30 °C) [6]: 428 nM
Ub9(K48)-GFP-35: base protein Ub-GFP-35 with a K48-linked chain of eight ubiquitins attached to its ubiquitin domain (from UniProt P0CG63 1-76; P0CG63 1-76) | 1100 | 1680 | 50 | –
